Test results from article PMC5136619, “Crystal structure of bacterial haem importer complex in the inward-facing conformation” (Nature Communications, 2016).

Key:
[1] = molecular target: BhuUV haem importer complex (two BhuU and two BhuV) (Burkholderia cenocepacia)
[2] = molecular target: BhuU, transmembrane permease subunit (TMD) of the haem importer BhuUV (Burkholderia cenocepacia); assay: crystal structure; BhuUV without BhuT, nucleotide-free; 30% PEG 400, 0.1 M NaCl, 0.1 M Li2SO4, 0.1 M Tris-HCl pH 8.5, 4 °C; 2.8 Å
[3] = molecular target: BhuU, transmembrane permease subunit (TMD) of the haem importer BhuUV (Burkholderia cenocepacia); assay: crystal structure; BhuUV-T complex, nucleotide-free and haem-free, in n-nonyl-beta-D-glucopyranoside; crystallised at 20 °C, 15% PEG 2000, 0.1 M HEPES pH 7.6; 3.2 Å
[4] = molecular target: BhuV, nucleotide-binding ATPase subunit (NBD) of the haem importer BhuUV (Burkholderia cenocepacia); assay: crystal structure; BhuUV without BhuT, nucleotide-free; 30% PEG 400, 0.1 M NaCl, 0.1 M Li2SO4, 0.1 M Tris-HCl pH 8.5, 4 °C; 2.8 Å
[5] = molecular target: BhuV, nucleotide-binding ATPase subunit (NBD) of the haem importer BhuUV (Burkholderia cenocepacia); assay: crystal structure; BhuUV-T complex, nucleotide-free and haem-free, in n-nonyl-beta-D-glucopyranoside; crystallised at 20 °C, 15% PEG 2000, 0.1 M HEPES pH 7.6; 3.2 Å

With “BhuT, periplasmic haem-binding protein (PBP), residues 40-311 (domain or fragment)” the ATPase activity (Vmax) of BhuUV in detergent solution on addition of haem-free BhuT (Vmax 5.0 to 7.1 μmol min^−1 mg^−1) [1] was 1.4 fold and the ATPase activity of BhuUV reconstituted in liposomes, with BhuT [1] was 1.4 fold.

Substance “BhuU, transmembrane permease subunit (TMD) of the haem importer BhuUV (natural protein)” has a stoichiometry N [2] of 2 and a stoichiometry N [3] of 2.

“BhuV, nucleotide-binding ATPase subunit (NBD) of the haem importer BhuUV (natural protein)” was tested, and the stoichiometry N [4] was 2 and the stoichiometry N [5] was 2.
